Measurements: patent publication US20060287503, “Retinoid X receptor-interacting polypeptides and related molecules and methods” (published 2006)

T1: RIP15 (Mus musculus, UniProt Q60644 SEQ:1-446)
T1 chain: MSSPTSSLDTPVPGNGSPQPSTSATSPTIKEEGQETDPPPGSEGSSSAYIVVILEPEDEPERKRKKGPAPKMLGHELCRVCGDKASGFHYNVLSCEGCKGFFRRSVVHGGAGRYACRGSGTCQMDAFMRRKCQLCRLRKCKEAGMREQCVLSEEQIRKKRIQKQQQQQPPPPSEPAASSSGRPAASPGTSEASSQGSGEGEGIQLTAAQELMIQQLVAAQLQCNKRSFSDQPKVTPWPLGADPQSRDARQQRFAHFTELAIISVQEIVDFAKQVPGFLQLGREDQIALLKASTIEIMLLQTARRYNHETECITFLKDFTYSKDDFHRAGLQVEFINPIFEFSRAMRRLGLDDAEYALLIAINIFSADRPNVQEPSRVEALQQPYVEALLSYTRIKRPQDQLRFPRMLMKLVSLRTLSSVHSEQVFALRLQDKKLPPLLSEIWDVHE


Experiments:
[1] = target: RIP15/RXRalpha heterodimer (Mus musculus / Homo sapiens, UniProt Q60644;P19793 Q60644:1-446,P19793:1-462); assay: EMSA; with RXR; details: tags: human RXRalpha expressed in E. coli; label: 32P end label
Method: (§1) The binding of the RIP14-2 isoform to this element was weaker than that of RIP14-1 when similar amounts of RIP14 proteins were used. […] Several other DNA elements were tested in the gel shift assay, including the retinoic acid response element from the promoter of the human RARβ2 isoform (βRARE) (de The et al., Nature 343:177-180, 1990). In the presence of RXR, the βRARE was bound by both the RIP14 isoforms and RIP15 (FIG. 8, panel B). Again, the binding of the RIP14-2/RXR heterodimer was weaker than the RIP14-1/RXR heterodimer when a similar amount of RIP14 proteins were used (FIG. 8, panel B, lanes 10 and 14).
(§2) RIP14 and RIP15 proteins were produced by in vitro translation (Promega TNT, Madison, Wis.) using expression vectors containing the RIP genes following a T7 promoter. To generate full length RIP14-2 constructs, fragments from RIP14-1 clone No. 15 containing regions from the middle of the E domain to the 3′ end replaced the corresponding regions of RIP14-2 Clones No. 3 or 12, respectively. Sequences were confirmed by DNA sequencing. Human RXRα protein was expressed in E. coli using a bacterial expression vector based on the bacteriophage T7 promoter (Carter et al., Mol. Cell. Biol. in press., 1994). […]

[2] = target: T2, RIP14-1/RXRalpha heterodimer (Mus musculus / Homo sapiens, UniProt Q60641-2;P19793 Q60641-2:1-484,P19793:1-462); assay: EMSA; competition with 50-fold unlabeled EcRE (specific) and AP1 (nonspecific) tested; 40 mM KCl, 2.5 mM MgCl2, pH 8.0, room temp; details: tags: human RXRalpha expressed in E. coli; label: 32P end label
Method: (§3) In panel A, RIP14-1 without (lane 2) or with RXR (lanes 3-5) was incubated with the hsp27 promoter (EcRE) end-labeled with [³²P]ATP. In panel B, RIP15 (lanes 2-5) and RIP14-1 (lanes 9-12) without (lanes 2 and 9) or with (lanes 3-5 and 10-12) RXR were incubated with βRARE end-labeled with [³²P]ATP. In both cases, a 50-fold molar excess of unlabeled specific (sp; EcRE, lane A4 and βRARE, lanes B4 and B11) or nonspecific (ns; AP1, lanes A5, B5, and B12) oligomers were added with the labeled probe. Incubations with probe alone are shown in lanes A1, B1, and B8. Cell lysates used for in vitro translation were also incubated with the probes without (lanes A6 and B6) or with (lanes A7 and B7) RXR. RIP14-2 and the RIP14-1 chimeras containing a four amino acid insertion in the D domain (RIP14C) were also incubated with βRARE and RXR as shown in lanes B13 and B14, respectively. Specific bands are indicated by arrows.
(§4) To identify DNA sequences recognized by each orphan, in vitro translated proteins were used for gel shift assays. Because of their strong sequence similarity to the ecdysone receptor, a well studied ecdysone response element (EcRE) from the Drosophila hsp27 promoter (Riddilough et al., EMBO J. 6:3729-3734, 1987) was tested for binding to both orphans, in the presence and absence of RXR. […]

RIP15 = target: T1, RIP15; assay: EMSA; without RXR; details: label: 32P end label
Method: as §1, §2

[3] = target: T2, RIP14-1/RXRalpha heterodimer; assay: EMSA; competition with 50-fold unlabeled betaRARE (specific) and AP1 (nonspecific) tested; details: tags: human RXRalpha expressed in E. coli; label: 32P end label
Method: as §3, §4

T2 sequence (Q60641 other isoform, or with tags, fused parts or gaps, chain 1 of 2): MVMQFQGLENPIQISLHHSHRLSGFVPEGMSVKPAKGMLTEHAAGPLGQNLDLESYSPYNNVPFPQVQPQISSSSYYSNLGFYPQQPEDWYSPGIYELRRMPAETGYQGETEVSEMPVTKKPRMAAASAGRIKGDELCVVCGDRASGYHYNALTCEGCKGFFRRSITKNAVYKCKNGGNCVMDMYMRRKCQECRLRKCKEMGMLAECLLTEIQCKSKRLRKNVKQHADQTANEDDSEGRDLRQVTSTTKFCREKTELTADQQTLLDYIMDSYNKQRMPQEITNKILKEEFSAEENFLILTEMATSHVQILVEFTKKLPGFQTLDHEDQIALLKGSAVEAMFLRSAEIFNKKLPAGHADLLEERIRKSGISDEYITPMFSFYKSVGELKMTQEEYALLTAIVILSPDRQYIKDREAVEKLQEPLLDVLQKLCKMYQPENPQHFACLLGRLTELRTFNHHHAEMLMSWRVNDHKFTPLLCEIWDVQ
T2 sequence (P19793 whole entry, chain 2 of 2): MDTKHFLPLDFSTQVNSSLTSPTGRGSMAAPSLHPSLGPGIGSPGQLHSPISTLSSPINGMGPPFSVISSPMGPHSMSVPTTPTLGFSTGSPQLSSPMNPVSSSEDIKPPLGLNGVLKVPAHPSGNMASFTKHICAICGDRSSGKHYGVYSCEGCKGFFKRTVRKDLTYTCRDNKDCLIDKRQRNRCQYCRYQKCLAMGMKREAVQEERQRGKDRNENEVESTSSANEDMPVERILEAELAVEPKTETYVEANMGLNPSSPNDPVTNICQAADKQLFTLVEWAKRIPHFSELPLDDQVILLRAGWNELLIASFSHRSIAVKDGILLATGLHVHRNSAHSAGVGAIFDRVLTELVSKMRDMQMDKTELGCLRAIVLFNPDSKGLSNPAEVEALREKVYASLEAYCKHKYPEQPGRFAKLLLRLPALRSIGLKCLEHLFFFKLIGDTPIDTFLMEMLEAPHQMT
Chain of RIP15/RXRalpha heterodimer (P19793 whole entry, canonical isoform, one chain of several): as the sequence (P19793 whole entry, chain 2 of 2) above

Row | Binder | binding result [1] | binding result [2] | binding result (RIP15) | binding result [3]
1 | hsp27 EcRE (dsDNA) DNA 1: CTAGACAAGGGTTCAATGCACTTGTCCATCG DNA 2: CGATGGACAAGTGCATTGAACCCTTGTCTAG | no binding | binds | no binding | –
2 | betaRARE (dsDNA) DNA 1: GATCCGGGTAGGGTTCACCGAAAGTTCACTCGA DNA 2: TCGAGTGAACTTTCGGTGAACCCTACCCGGATC | – | – | – | binds
